Results: the supplement of paper PMC10567573

B1: SOAT1 (parent)
chain: PSNGRIDIKQLIAKKIKLTAEAEE

Variants of: B1
Test: protein stability index of a GFP-peptide fusion (GPS, HEK-293T) (PSI 1-6); higher = more stable
Settings: c terminus: a fixed tail appended
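Note: lentivirally expressed fusions sorted by FACS into six bins by GFP to DsRed ratio, PSI derived from sequencing read proportions per bin multiplied by bin number.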

Protein stability index: each site, then its substitutions
E24: M 2.27 | P 3.24 | Y 2.68 | G 2.7 | S 2.73 | T 3.44 | W 2.44 | R 2.79 | H 2.94 | N 3.07 | K 2.98
I6: K 3.74 | V 3.32 | M 2.56 | S 3.46 | F 2.83 | L 3.18 | D 4.4 | H 3.61 | E 4.06 | W 2.91 | T 3.58 | C 3.26 | Y 3.51 | A 3.79 | Q 3.76 | P 3.37 | N 3.3 | G 4.1
I8: S 3.99 | Q 3.8 | W 3.08 | V 3.88 | F 3.54 | P 3.38 | D 4.48 | N 4.01 | L 3.62 | H 3.12 | K 3.64 | E 4.62 | M 3.44 | A 3.42 | G 3.89 | C 4.06
Q10: A 3.35 | N 3.21 | V 2.33 | Y 2.43 | E 3.73 | W 2.35 | S 3.1 | K 3.3 | D 3.58 | T 3.45 | I 2.18 | F 2.65
I16: M 3.51 | A 4.04 | Q 3.52 | K 4.01 | R 3.65 | T 4.1 | Y 3.16 | N 4.02 | G 4.5 | H 3.78 | L 3.22 | V 3.75 | E 4.45 | C 3.31 | P 3.81 | D 4.42
A20: E 3.88 | G 3.42 | Y 2.8 | C 3.44 | N 3.19 | K 3.47 | F 2.51 | S 3.61 | D 3.16 | V 2.8 | Q 3.44 | L 3.1 | I 2.7 | P 3.78
S2: W 2.88 | I 3.33 | N 3.61 | Q 3.63 | R 3.08 | F 2.94 | V 2.96 | C 3.26 | D 4.03 | Y 2.88 | E 3.46 | P 3.35 | K 2.58 | L 3.09
L11: N 3.6 | P 3.66 | A 3.83 | I 3.17 | D 4.04 | M 3.22 | H 3.97 | T 4.3 | F 3.38 | C 3.5 | Y 3.42
G4: K 3.77 | I 3.18 | C 3.33 | A 3.77 | V 3.04 | D 4.92 | T 3.49 | S 3.57 | H 3.36 | W 2.85 | F 3.56 | Q 3.57
D7: V 2.41 | M 2.89 | C 3.12 | N 3.33 | P 3.23 | Y 2.35 | Q 3.01 | R 2.94 | E 3.4 | I 3.08 | H 3.65 | T 2.97 | W 3.46 | A 2.96 | G 3.02 | K 3.14
A13: G 3.54 | W 2.83 | Y 2.97 | M 3.12 | N 3.35 | F 2.94 | H 3.41 | D 4.08 | K 3.48 | T 3.08 | C 2.82
T19: I 2.12 | W 2.21 | A 3.48 | Q 2.96 | Y 2.52 | N 3.29 | S 2.9 | V 2.75 | K 2.52 | C 3.06 | R 2.73 | H 3.21 | M 1.89 | D 4.18 | F 1.98 | E 3.88
